Experimental data taken from IntAct's records for PubMed 21850687.

B1: Thioredoxin-dependent peroxide reductase, mitochondrial (Homo sapiens), P30048 (parent)
chain: MAAAVGRLLRASVARHVSAIPWGISATAALRPAACGRTSLTNLLCSGSSQAKLFSTSSSCHAPAVTQHAPYFKGTAVVNGEFKDLSLDDFKGKYLVLFFYPLDFTFVCPTEIVAFSDKANEFHDVNCEVVAVSVDSHFSHLAWINTPRKNGGLGHMNIALLSDLTKQISRDYGVLLEGSGLALRGLFIIDPNGVIKHLSVNDLPVGRSVEETLRLVKAFQYVETHGEVCPANWTPDSPTIKPSPAASKEYFQKVNQ

Variants of: B1
Settings: with lrrk2_human LRRK2, Q5S007
Chain of lrrk2_human LRRK2, Q5S007 (Q5S007 whole entry): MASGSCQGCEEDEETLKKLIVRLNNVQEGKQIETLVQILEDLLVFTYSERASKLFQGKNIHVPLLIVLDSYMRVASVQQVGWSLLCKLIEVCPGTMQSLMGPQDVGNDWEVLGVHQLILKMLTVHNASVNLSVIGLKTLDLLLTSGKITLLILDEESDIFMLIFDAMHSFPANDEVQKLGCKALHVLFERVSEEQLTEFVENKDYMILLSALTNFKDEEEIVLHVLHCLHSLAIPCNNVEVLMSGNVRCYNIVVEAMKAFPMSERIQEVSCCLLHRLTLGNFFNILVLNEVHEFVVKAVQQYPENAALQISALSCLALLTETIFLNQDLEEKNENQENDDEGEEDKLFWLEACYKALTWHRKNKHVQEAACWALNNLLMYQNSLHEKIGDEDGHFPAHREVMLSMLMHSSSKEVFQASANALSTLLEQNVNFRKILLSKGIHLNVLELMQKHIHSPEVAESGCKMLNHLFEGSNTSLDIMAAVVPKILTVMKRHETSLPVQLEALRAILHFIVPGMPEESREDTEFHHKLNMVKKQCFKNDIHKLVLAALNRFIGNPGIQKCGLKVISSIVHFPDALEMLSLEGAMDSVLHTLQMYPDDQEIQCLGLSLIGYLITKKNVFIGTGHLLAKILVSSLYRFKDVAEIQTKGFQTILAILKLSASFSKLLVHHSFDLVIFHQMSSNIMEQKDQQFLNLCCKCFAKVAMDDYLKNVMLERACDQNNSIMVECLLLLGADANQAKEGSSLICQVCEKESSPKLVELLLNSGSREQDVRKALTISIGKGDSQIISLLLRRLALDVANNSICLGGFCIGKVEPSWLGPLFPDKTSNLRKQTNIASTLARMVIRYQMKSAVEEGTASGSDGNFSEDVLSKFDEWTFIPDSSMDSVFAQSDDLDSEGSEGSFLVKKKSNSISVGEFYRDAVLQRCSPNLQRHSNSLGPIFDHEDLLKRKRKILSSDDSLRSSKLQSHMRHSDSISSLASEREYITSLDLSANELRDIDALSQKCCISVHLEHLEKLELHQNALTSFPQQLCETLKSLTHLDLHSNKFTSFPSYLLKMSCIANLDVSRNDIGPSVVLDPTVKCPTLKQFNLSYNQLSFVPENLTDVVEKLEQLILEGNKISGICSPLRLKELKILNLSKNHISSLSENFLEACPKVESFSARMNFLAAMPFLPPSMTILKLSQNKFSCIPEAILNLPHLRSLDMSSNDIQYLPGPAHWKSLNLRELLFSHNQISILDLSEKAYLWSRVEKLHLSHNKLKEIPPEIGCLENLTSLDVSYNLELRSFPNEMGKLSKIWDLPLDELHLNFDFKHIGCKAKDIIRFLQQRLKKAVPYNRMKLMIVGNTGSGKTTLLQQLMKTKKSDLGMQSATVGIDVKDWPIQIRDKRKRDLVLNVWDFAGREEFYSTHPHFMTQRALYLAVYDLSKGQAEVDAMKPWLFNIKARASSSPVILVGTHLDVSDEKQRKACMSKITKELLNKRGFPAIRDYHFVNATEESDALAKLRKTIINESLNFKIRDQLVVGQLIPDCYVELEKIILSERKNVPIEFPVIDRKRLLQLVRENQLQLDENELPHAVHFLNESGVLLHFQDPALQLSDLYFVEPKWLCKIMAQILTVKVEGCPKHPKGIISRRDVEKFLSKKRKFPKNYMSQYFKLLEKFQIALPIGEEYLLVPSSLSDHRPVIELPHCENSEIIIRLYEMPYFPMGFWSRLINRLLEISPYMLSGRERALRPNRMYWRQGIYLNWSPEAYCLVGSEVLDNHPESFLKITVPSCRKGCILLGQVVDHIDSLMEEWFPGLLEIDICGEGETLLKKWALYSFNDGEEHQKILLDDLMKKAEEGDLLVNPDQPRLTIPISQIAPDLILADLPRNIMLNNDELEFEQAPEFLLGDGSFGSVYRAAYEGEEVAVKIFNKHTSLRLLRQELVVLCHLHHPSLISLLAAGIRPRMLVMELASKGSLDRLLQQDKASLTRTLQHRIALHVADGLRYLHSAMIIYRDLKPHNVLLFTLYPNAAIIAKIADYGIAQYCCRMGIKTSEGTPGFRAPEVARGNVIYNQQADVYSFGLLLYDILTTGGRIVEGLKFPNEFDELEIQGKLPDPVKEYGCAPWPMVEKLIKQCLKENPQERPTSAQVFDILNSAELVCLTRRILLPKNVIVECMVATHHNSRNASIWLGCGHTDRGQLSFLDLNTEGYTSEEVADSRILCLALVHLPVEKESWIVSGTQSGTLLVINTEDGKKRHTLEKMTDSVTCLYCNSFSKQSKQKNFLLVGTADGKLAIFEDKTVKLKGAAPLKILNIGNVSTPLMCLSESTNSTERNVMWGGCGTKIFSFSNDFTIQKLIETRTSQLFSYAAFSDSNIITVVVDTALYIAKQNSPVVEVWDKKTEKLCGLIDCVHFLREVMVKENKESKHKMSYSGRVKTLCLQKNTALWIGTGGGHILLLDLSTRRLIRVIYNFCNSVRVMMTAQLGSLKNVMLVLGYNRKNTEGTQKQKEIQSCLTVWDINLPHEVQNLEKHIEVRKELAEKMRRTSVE
In the case of T146A, the “effect of a mutation on the interaction” value is reported as “disrupting interaction”.
